Reference: US20070185028A1, “Compositions and methods for treatment of protein misfolding and protein aggregation diseases” (priority 2004, published 2007)
Several values for one entry are separate records, joined by “and”; a condition that tells them apart may be missing. Identical values can stand only once.

What was measured:
Format in all cases: biochemical
transthyretin (TTR) = molecular target: T1, transthyretin (TTR) (Homo sapiens, UniProt P02766); assay: Transthyretin fibrillation ThT assay; details: for decrease in ThT fluorescence of TTR: 3.2 μM, 16 μM TTR, 37° C.
T1 construct: purchased Sigma-Aldrich
Protocol: The effect of the five αB crystallin peptides ST, DR, HG, LT, and ER on TTR fibrillation was measured using the ThT fluorescence assay (FIG. 26). The formation and inhibition of TTR fibrils was qualitatively verified by fluorescence and bright-field microscopy. The concentration of the peptides was varied relative to TTR to establish a concentration curve. In addition, the effect of a control neuropeptide (AT1) with no TTR fibril inhibition activity was measured and compared to the effect of the αB crystallin peptides on TTR fibril formation. The ThT fluorescence of 16 μM TTR alone incubated at 37° C. for 4 hrs, increased from ˜15,000 to ˜45,000 RFU. Addition of 3.2 μM αB crystallin peptides, ST, DR, LT, and HG decreased the ThT fluorescence of TTR by 15-70%. In contrast, 3.2 μM ER had no effect on TTR fibril formation. Increasing the concentration of the ER peptide to 16 μM decreased the ThT fluorescence of TTR by 60%. The negative control peptide AT1 had no effect on TTR fibrillation even at a concentration as high as 160 μM. All five αB crystallin peptides inhibited TTR fibrillation at sub-stoichometric and stoichometric concentrations (3.2 μM and 16 μM).
The Thioflavin T (ThT) fluorescence of TTR in the presence of varying concentrations of αB crystallin peptides and controls was measured. […] When the concentration of the peptides was increased to 16 μM (1:1::peptide:TTR), the αB crystallin peptides ST, DR, HG, LT and ER decreased the ThT fluorescence by 8-72%. When the concentration of the peptides was increased further to 80 μM ([…]), all of the five αB crystallin peptides ST, DR, HG, LT, and ER decreased the ThT fluorescence by 40-70%. […] The formation and inhibition of TTR fibrils was verified microscopically.
Transthyretin fibrillation ThT assays were performed as described previously. Hurshman et al., Biochemistry 43:7365-81, 2004; O'Nuallain and Wetzel, Proc Natl Acad Sci USA 99:1485-90, 2002. Peptides were dissolved to 2 mM in 0.25% DMSO and diluted accordingly, while TTR was dissolved in 200 mM KCl, 2 mM EDTA, 5 mM PBS, 200 mM sodium acetate, pH 4.4. For the 5::peptide:TTR assay, 10 μL of 160 μM peptide was mixed with 10 μL of 32 μM TTR, and 1 μL of 1 mM ThT. For the 1:1::peptide:TTR assay, 10 μL of 32 μM peptide was mixed with 10 μL of 32 μM TTR and 1 μL of 1 mM ThT. For the 1:5::peptide:TTR assay, 10 μL of 6.4 μM peptide was mixed with 10 μL of 32 μM TTR and 1 μL of 1 mM ThT. ThT fluorescence was measured using a Perkin Elmer Victor^3 V plate reader. Assays were performed in 384-well fluorescence plates in duplicates or triplicates. Samples were incubated at 37° C. ThT fluorescence was measured continuously for 150 minutes. The effect of the peptides and APS was calculated as percentage fibril formation relative to TTR alone (100%) at the end of 150 minutes.

Aβ1-42 = molecular target: T2, Aβ1-42 (Homo sapiens, UniProt P05067); assay: Aβ1-42 fibril formation ThT fluorescence assay; details: for decrease in ThT fluorescence of Aβ1-42: 6 μM inhibitor, 30 μM Aβ1-42, 37° C., 48 hrs; for inhibition of Aβ fibrillation: peptide to substrate concentration of 1:5
T2 construct: Aβ1-42 (American Peptide); purchased American Peptide
Protocol: The effect of five synthesized αB crystallin peptides STSLSPFYLRPPSFLRAP (ST), DRFSVNLDVKHFS (DR), HGKHEERQDE (HG), LTITSSLSSDGV (LT), and ERTIPITRE (ER) on Aβ1-42 fibrillation was measured using the ThT fluorescence assay (FIG. 1). The formation and inhibition of Aβ1-42 fibrils was qualitatively verified by fluorescence and bright-field microscopy. The concentration and stoichometry of the peptides was varied relative to Aβ1-42 to establish a concentration curve. In addition, the effect of two known inhibitors of Aβ1-42 fibrillation (APS and NAP) and a control neuropeptide (AT1) with no fibril inhibition activity was measured and compared to the effect of the αB crystallin peptides on Aβ1-42 fibrillation. The ThT fluorescence of 30 μM Aβ1-42 alone incubated at 37° C. for 48 hrs increased from ˜350,000 to ˜450,000 RFU. […] In contrast, 6 μM DR, LT, and […] had no effect on Aβ1-42 fibril formation. […] Increasing the concentration of the DR peptide to 30 μM decreased the ThT fluorescence by approximately 50%. […] However, when the concentrations of the LT and ER peptides were increased to 150 μM, a 60-100% decrease in ThT fluorescence was measured. […] The negative control peptide AT1 had no effect on Aβ1-42 fibril formation even at a concentration as high as 300 μM.
The Thioflavin T (ThT) fluorescence of Aβ1-42 in the presence of varying concentrations of αB crystallin peptides and controls was measured. […] Addition of 6 μM DR, LT, and ER had no effect on the ThT fluorescence of Aβ1-42. When the concentration of the peptides was increased to 30 μM (1:1::peptide:Aβ1-42), the αB crystallin peptides ST, DR, HG decreased the ThT fluorescence by 50-100%. At the same concentrations, APS and NAP decreased the ThT fluorescence by 30-100%. When the concentration of the peptides was increased further to 150 μM ([…]), four of the five αB crystallin peptides DR, HG, LT, and ER decreased the ThT fluorescence by 58-100%. At the same concentrations, APS and NAP decreased the fluorescence by 28-100%. […] The formation and inhibition of Aβ fibrils was verified microscopically.
Thioflavin T (ThT) Assays. The effect of the five αB crystallin peptides (ST, DR, HG, LT, and ER) on Aβ1-42 fibril formation was measured using the ThT fluorescence assay (44-47) and compared with two known inhibitors of Aβ1-42 fibril formation (Tramiprosate and NAP)(34, 36) and a negative control neuropeptide Angiotensin 1 (AT1). Thioflavin T is a fluorescent dye that has a high affinity for amyloid fibrils and becomes fluorescent (excitation λ=450 nm, emission λ=486 nm) when bound to fibrils. For the Aβ1-42 assays, peptides and APS were dissolved to 2 mM in 0.25% DMSO and diluted accordingly, while Aβ1-42 was dissolved in 20 mM Tris-Cl, pH 7.40, and 100 mM NaCl. For the 5:1::inhibitor:Aβ1-42 assay, 10 μL of 450 μM peptide or APS was mixed with 10 μL of 90 μM Aβ1-42), 7 μL 20 mM Tris-Cl, 100 mM NaCl, pH 7.4 and 3 μL of 1 mM ThT. For the 1:1::inhibitor:Aβ1-42 assay, 10 μL of 90 μM peptide or APS was mixed with 10 μL of 90 μM Aβ(1-42), 7 μL 20 mM Tris-Cl, 100 mM NaCl, pH 7.4 and 3 μL of 1 mM ThT. For the 1:5::inhibitor:Aβ1-42 assay, 10 μL of 18 μM peptide or APS was mixed with 10 μL of 90 μM Aβ(1-42), 7 μL 20 mM Tris-Cl, 100 mM NaCl, pH 7.4 and 3 μL of 1 mM ThT. ThT fluorescence in relative fluorescence units (RFU) was measured using a Perkin Elmer Victor^3 V plate reader. Assays were performed in 384-well fluorescence plates in duplicates or triplicates. Samples were incubated at 37° C. for a total of 48 hours. ThT fluorescence was measured at 0, 24, and 48 hours. The effect of the peptides and APS was calculated as percentage fibril formation relative to Aβ1-42 alone (100%) at the end of 48 hours.

γD crystallin = molecular target: T3, γD crystallin (Homo sapiens, UniProt P07320); assay: γD crystallin Thioflavin T fluorescence (fibrillization); details: 1:1 γD crystallin:peptide
T3 sequence (P07320 2-174): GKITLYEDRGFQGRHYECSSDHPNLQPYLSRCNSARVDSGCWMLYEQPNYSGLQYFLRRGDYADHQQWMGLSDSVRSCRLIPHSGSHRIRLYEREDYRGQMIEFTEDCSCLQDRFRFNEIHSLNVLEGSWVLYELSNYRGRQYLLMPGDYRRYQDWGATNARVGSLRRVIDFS
Protocol: γD crystallin Thioflaviin T fluorescence. γD crystallin fibrils were formed in a similar way to that of γ crystalline. Meehan et al., J Biol Chem 279: 3413-3419, 2004. Peptides were dissolved to 9.1 mM in TFE and diluted to 0.91 mM stock solutions in 10% TFE, pH 2.0. 3.5 mg of Thioflavin T was dissolved in 100 μl of 50 mM Glycine pH 8.5. A stock solution of 1 mg/ml (0.22 mM) Aβ was prepared. 20 μl Aβ, 5 μl chaperone, 2 μl Thioflavin T was mixed with 73 μl 10% TFE, pH 2.0. Fluorescence was read using a Beckman Coultier DTX 880 multimode detector. Samples were heated at 50° C. for 72 hours and fluorescence was read again.
The fibrillization of γD crystallin was measured as fluorescence of the fluorescent dye Thioflavin T from solutions containing 1:1 monomeric molar ratio of γD crystallin:peptide. In the absence of fibrils Thioflavin T had little or no fluorescence. The fluorescence of the Thioflavin T bound to γD crystallin fibrils in the absence of any other molecule after 72 hrs was set to 100%. […] Fibril formation=ΔfluorescenceγD crystallin (with chaperone)*100/ΔfluorescenceγD crystallin (without chaperone).

Aβ = Aβ (Homo sapiens, UniProt P05067); assay: Aβ Thioflavin T fluorescence (fibrillization, 50° C., 72 hours); details: Thioflavin T; 1:10 Aβ:peptide; 50° C., 72 hours
Protocol: Aβ Thioflaviin T fluorescence. Aβ fibrils were grown in the presence and absence of αB crystallin and peptides in conditions similar to that previously described for the presence of αB crystallin. Bakthisaran et al., Biochem J, 2005. Peptides were dissolved to 9.1 mM in trifluorethanol (TFE) and diluted to 0.91 mM stock solutions in 50 mM PBS, 100 mM NaCl, pH 7.4. 3.5 mg of Thioflavin T was dissolved in 100 μl of 50 mM Glycine pH 8.5. A stock solution of 1 mg/ml (0.22 mM) Aβ was prepared. 20 μl Aβ, 50 μl chaperone, 2 μl Thioflavin T was mixed with 28 μl 50 mM PBS, 100 mM NaCl, pH 7.4. Fluorescence was read using a Beckman Coultier DTX 880 multimode detector. Samples were heated at 50° C. for 72 hours and fluorescence was read again.
The fibrillization of Aβ was measured as fluorescence of the fluorescent dye Thioflavin T from solutions containing 1:10 monomeric molar ratio of Aβ:peptide. In the absence of Aβ fibrils, Thioflavin T had little or no fluorescence. The fluorescence of the Thioflavin T bound to Aβ fibrils in the absence of any other molecule after 72 hrs was set to 100%. […] Fibril formation=ΔfluorescenceAβ (with chaperone)*100/ΔfluorescenceAβ (without chaperone).

Compound: NCCCS(=O)(=O)O [APS, 3-aminopropanesulfonic acid, reference compound]
- decrease in ThT fluorescence of TTR (transthyretin (TTR)): did not have any effect
- decrease in ThT fluorescence of Aβ1-42 (Aβ1-42): ~40% and 38%
- inhibition of Aβ fibrillation (Aβ1-42): ~38%

Compound: HEER
- inhibition of TTR fibrils, HG derived peptides (transthyretin (TTR); 1:1 ratio): ~100%

Compound: NAPVSIPQ [reference compound]
- decrease in ThT fluorescence of TTR (transthyretin (TTR)): did not have any effect
- decrease in ThT fluorescence of Aβ1-42 (Aβ1-42): ~40% and 38%
- inhibition of Aβ fibrillation (Aβ1-42): ~38%

Compound: αB crystallin: wild type recombinant human αB crystallin, small heat shock protein and molecular chaperone
- effect on the fibrillization of γD crystallin (ranking) (γD crystallin; 72 hrs): weakest effect
- Δfluorescence (γD crystallin) (γD crystallin; Thioflavin T, 50° C., 72 hours): 1,079,141,056
- Δfluorescence (Aβ) (Aβ): 318,471,040
